In patent publication US20220195068A1 (TENEOBIO, published 2022):
Changes are numbered by the printed parent chain. Each block holds one binder with its values, some of them ahead of it.

What was measured:
[1] = molecular target: T1, human PSMA (Prostate Specific Membrane Antigen, Glutamate Carboxypeptidase II) on cells (human, UniProt Q04609 1-750); test: flow cytometry on LNCaP cells
T1 construct: whole, on cells; the cell line is named under assay; also called cell surface expressed PSMA; FOLH1
T1 sequence (Q04609 whole entry): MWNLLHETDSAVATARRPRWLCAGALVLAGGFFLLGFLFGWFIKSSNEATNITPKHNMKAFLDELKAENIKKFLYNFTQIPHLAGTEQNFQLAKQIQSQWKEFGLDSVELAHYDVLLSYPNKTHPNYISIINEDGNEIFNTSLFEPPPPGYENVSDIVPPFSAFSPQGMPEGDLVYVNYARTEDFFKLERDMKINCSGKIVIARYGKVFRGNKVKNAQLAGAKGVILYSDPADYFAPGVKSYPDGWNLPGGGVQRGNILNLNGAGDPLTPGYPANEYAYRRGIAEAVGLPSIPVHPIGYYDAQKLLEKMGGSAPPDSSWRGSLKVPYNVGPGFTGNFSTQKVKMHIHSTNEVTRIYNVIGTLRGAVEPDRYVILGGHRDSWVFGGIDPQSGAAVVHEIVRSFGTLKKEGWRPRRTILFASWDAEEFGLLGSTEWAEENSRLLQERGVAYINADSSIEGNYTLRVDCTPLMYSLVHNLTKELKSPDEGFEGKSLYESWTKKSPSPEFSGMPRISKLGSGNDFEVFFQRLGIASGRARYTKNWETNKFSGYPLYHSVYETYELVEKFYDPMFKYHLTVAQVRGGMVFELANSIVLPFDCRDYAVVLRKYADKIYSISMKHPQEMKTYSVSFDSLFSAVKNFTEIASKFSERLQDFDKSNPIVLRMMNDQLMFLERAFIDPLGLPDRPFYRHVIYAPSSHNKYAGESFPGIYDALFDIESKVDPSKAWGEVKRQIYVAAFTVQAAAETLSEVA
Procedure: Briefly, 50,000 target cells were stained with a dilution series of purified UniAbs™ for 30 minutes at 4° C. Following incubation, the cells were washed twice with flow cytometry buffer (1X PBS, 1% BSA, 0.1% NaN₃) and stained with goat F(ab')₂ anti-human IgG conjugated to R-phycoerythrin (PE) (Southern Biotech, cat. #2042-09) to detect cell-bound antibodies. After a 20-minute incubation at 4° C., the cells were washed twice with flow cytometry buffer and the mean fluorescence intensity (MFI) was measured by flow cytometry. The MFI of cells stained with secondary antibody alone were used for determination of background signal and binding of each antibody was converted to fold over background. Binding to cynomolgus PSMA positive cells was determined using the same protocol with the following modifications: the target cells were from Freestyle 293-F cells (ThermoFisher R79007) transiently transfected to express the extracellular domain of cynomolgus PSMA. In some experiments EC50 values were calculated using GraphPad Prism 7.

[2] = molecular target: T1, human PSMA (Prostate Specific Membrane …); test: flow cytometry cell binding, LNCAP cells
[3] = molecular target: T1, human PSMA (Prostate Specific Membrane …); test: flow cytometry cell binding, PC3-PSMA cells
[4] = molecular target: T1, human PSMA (Prostate Specific Membrane …); test: flow cytometry cell binding, MDA-PCa-2b cells
[5] = molecular target: T1, human PSMA (Prostate Specific Membrane …); test: cell-based or functional assay
[6] = molecular target: T1, human PSMA (Prostate Specific Membrane …); test: flow cytometry cell binding, 22Rv1 cells

B1: anti-PSMA heavy chain antibody clone ID 345497 (antibody, V domains shown)
VH: QVQLVESGGGVVQPGRSLRLSCAASGFSFSRYGMHWVRQAPGKGLEGVAVIWYDGSNRYYADSVKGRFTISRDNSKNTLYLQMNSLRAEDTAVYYCAREPRIGYYYESSGYYSLDYRGQGTLVTVSS
notes: heavy chain-only antibody (UniAb), no light chain; also called HCAb 345497
fold over the background MFI signal [1]: 112 fold over background

B2: anti-PSMA heavy chain antibody clone ID 325932 (antibody, V domains shown)
VH: B1 VH with R31S
notes: heavy chain-only antibody (UniAb), no light chain
fold over the background MFI signal [1]: 64 fold over background

B5: anti-PSMA heavy chain antibody clone ID 345505 (antibody, V domains shown)
VH: B1 VH with S28T, S30I, R31S
notes: as for B2
fold over the background MFI signal [1]: 59 fold over background

B7: 346181xCD3 monoparatopic PSMAxCD3 bispecific antibody (bispecific antibody, human IgG4 S228P, kappa, F234A L235A)
heavy 1: QLQLQESGPGLVKPSETLSLTCTVSGGSISSSNYFWGWIRQSPGKGLEWIGSIDYSGYTYYNPSLKSRVTISVDTSKNQFSLKLSSVTAADTAVYNCARHKAATADFDYRGQGTLVTVSSESKYGPPCPPCPAPEAAGGPSVFLFPPKPKDTLMISRTPEVTCVVVDVSQEDPEVQFNWYVDGVEVHNAKTKPREEQFNSTYRVVSVLTVLHQDWLNGKEYKCKVSNKGLPSSIEKTISKAKGQPREPQVYTLPPSQEEMTKNQVSLSCAVKGFYPSDIAVEWESNGQPENNYKTTPPVLDSDGSFFLVSRLTVDKSRWQEGNVFSCSVMHEALHNHYTQKSLSLSLGK
heavy 2: EVQLVESGGGLVQPGRSLRLSCAASGFTFDDYAMHWVRQAPGKGLEWVSGISWNSGSIGYADSVKGRFTISRDNAKNSLYLQMNSLRAEDTALYYCAKDSRGYGDYRLGGAYWGQGTLVTVSSASTKGPSVFPLAPCSRSTSESTAALGCLVKDYFPEPVTVSWNSGALTSGVHTFPAVLQSSGLYSLSSVVTVPSSSLGTKTYTCNVDHKPSNTKVDKRVESKYGPPCPPCPAPEAAGGPSVFLFPPKPKDTLMISRTPEVTCVVVDVSQEDPEVQFNWYVDGVEVHNAKTKPREEQFNSTYRVVSVLTVLHQDWLNGKEYKCKVSNKGLPSSIEKTISKAKGQPREPQVYTLPPSQEEMTKNQVSLWCLVKGFYPSDIAVEWESNGQPENNYKTTPPVLDSDGSFFLYSRLTVDKSRWQEGNVFSCSVMHEALHNHYTQKSLSLSLGK
light: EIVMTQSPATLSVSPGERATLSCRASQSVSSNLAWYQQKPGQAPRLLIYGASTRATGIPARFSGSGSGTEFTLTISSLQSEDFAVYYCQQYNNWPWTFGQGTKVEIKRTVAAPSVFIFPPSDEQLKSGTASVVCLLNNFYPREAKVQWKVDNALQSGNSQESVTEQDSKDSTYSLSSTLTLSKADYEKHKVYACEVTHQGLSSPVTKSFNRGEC
notes: three-chain antibody-like molecule; also called monoparatopic molecule
EC50 [2]: 17 nM | EC50 [3]: 30 nM | EC50 [4]: 28 nM | IFNγ EC50, 22Rv1 cells [5]: 174 nM | IFNγ EC50, LNCAP cells [5]: 63 nM | IFNγ EC50, MDA-PCa-2b cells [5]: 116 nM | IFNγ EC50, PC3-PSMA cells [5]: 10.1 nM | IL-2 EC50, LNCAP cells [5]: 575 nM | IL-2 EC50, MDA-PCa-2b cells [5]: 38.5 nM | IL-2 EC50, PC3-PSMA cells [5]: 4.1 nM | Kill EC50, 22Rv1 cells, resting T-cells [5]: 52.8 nM | Kill EC50, LNCAP cells, resting T-cells [5]: 14.6 nM | Kill EC50, MDA-PCa-2b cells, resting T-cells [5]: 23.6 nM | Kill EC50, PC3-PSMA cells, resting T-cells [5]: 3.7 nM | EC50 [6]: 58 nM

B8: 350123xCD3 biparatopic PSMAxCD3 multi-specific antibody (bispecific antibody, human IgG4 S228P, kappa, F234A L235A)
heavy 1: QLQLQESGPGLVKPSETLSLTCTVSGGSISSSNYFWGWIRQSPGKGLEWIGSIDYSGYTYYNPSLKSRVTISVDTSKNQFSLKLSSVTAADTAVYNCARHKAATADFDYRGQGTLVTVSSGGGGSGGGGSQVQLVESGGGVVQPGRSLRLSCAASGFSFSRYGMHWVRQAPGKGLEGVAVIWYDGSNRYYADSVKGRFTISRDNSKNTLYLQMNSLRAEDTAVYYCAREPRIGYYYESSGYYSLDYRGQGTLVTVSSESKYGPPCPPCPAPEAAGGPSVFLFPPKPKDTLMISRTPEVTCVVVDVSQEDPEVQFNWYVDGVEVHNAKTKPREEQFNSTYRVVSVLTVLHQDWLNGKEYKCKVSNKGLPSSIEKTISKAKGQPREPQVYTLPPSQEEMTKNQVSLSCAVKGFYPSDIAVEWESNGQPENNYKTTPPVLDSDGSFFLVSRLTVDKSRWQEGNVFSCSVMHEALHNHYTQKSLSLSLGK
heavy 2: B7 heavy 2
light: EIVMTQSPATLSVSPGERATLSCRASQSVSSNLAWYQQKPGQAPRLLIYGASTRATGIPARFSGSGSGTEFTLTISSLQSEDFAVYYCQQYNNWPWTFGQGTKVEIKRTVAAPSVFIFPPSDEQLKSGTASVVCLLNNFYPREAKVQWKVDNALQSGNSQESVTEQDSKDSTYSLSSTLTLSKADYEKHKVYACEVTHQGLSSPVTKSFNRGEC
notes: also called biparatopic molecule
EC50 [2]: 2 nM | EC50 [3]: 6 nM | EC50 [4]: 2 nM | IFNγ EC50, 22Rv1 cells [5]: 380 nM | IFNγ EC50, LNCAP cells [5]: 3.29 nM | IFNγ EC50, MDA-PCa-2b cells [5]: 0.9 nM | IFNγ EC50, PC3-PSMA cells [5]: 1.01 nM | IL-2 EC50, LNCAP cells [5]: 3.73 nM | IL-2 EC50, MDA-PCa-2b cells [5]: 1.11 nM | IL-2 EC50, PC3-PSMA cells [5]: 1.1 nM | Kill EC50, 22Rv1 cells, resting T-cells [5]: 0.42 nM | Kill EC50, LNCAP cells, resting T-cells [5]: 0.84 nM | Kill EC50, MDA-PCa-2b cells, resting T-cells [5]: 0.41 nM | Kill EC50, PC3-PSMA cells, resting T-cells [5]: 0.4 nM | EC50 [6]: 3 nM

Results, then the binder that gave them:

fold over the background MFI signal [1]: 55 fold over background
B3: anti-PSMA heavy chain antibody clone ID 345508 (antibody, V domains shown)
VH: B1 VH with R31S, L45P, G47W
notes: as for B2

fold over the background MFI signal [1]: 13 fold over background
B4: anti-PSMA heavy chain antibody clone ID 345510 (antibody, V domains shown)
VH: B1 VH with R31S, G47W, R58K, L79M
notes: as for B2

fold over the background MFI signal [1]: 37 fold over background
B6: anti-PSMA heavy chain antibody clone ID 345509 (antibody, V domains shown)
VH: B1 VH with V11L, R16G, R31S, R58K, L79M
notes: as for B2
